Blank lines part the entries; values can stand above or below the substance they belong to.
Columns and labels:
[1] = biological target: D3H44 light chain F116A_Q124R_L135V_T178R; assay: SMCA, LC-MS; change vs wild-type bispecific; competing light chain m29
[2] = biological target: D3H44 light chain F116A_Q124R_L135V_T178R; assay: SMCA, LC-MS; change vs wild-type bispecific; competing light chain m45
[3] = biological target: D3H44 light chain F116A_Q124R_L135V_T178R; assay: SMCA: 2 heavy + 2 light chains co-expressed, protein A, LC-MS; competing light chain m41
[4] = biological target: D3H44 light chain F116A_Q124R_L135V_T178R; assay: SMCA, LC-MS of 4 co-expressed chains; competing light chain m29
[5] = biological target: tissue factor (TF) antigen (UniProt P13726); assay: SPR (ProteOn XPR36), Fab captured by His tag on anti-penta-His surface, TF injected as analyte, 1:1 fit; * = estimated from a Fab differing only in the L chain tag
[6] = biological target: tissue factor (TF) antigen (UniProt P13726); assay: SPR (ProteOn XPR36), Fab captured by His tag on anti-penta-His surface, TF injected as analyte; against wild-type D3H44 Fab; * = estimated from a Fab differing only in the L chain tag
[7] = biological target: Cetuximab light chain Q124E_V133W_S176T_T178L_T180E; assay: SMCA co-expression, LC-MS; competing light chain m2
[8] = biological target: Cetuximab light chain Q124R_V133A_S176T_T178R; assay: SMCA co-expression, LC-MS; competing light chain m12; estimated change (***)
[9] = biological target: Cetuximab light chain Q124R_V133A_S176T_T178R; assay: SMCA co-expression, LC-MS; competing light chain m12
[10] = biological target: Cetuximab light chain F116A_V133G_L135V_S176R; assay: SMCA co-expression, LC-MS; competing light chain m36
[11] = biological target: Cetuximab light chain F116A_V133G_L135V_S176R; assay: SMCA co-expression, LC-MS; competing light chain m36; estimated change (***)
[12] = biological target: Cetuximab light chain V133G_N137K_S174R_S176R; assay: SMCA co-expression, LC-MS; competing light chain m16; estimated change (***)
[13] = biological target: Cetuximab light chain V133G_N137K_S174R_S176R; assay: SMCA co-expression, LC-MS; competing light chain m24
[14] = biological target: cetuximab light chain of SMCA design 9820-9823_1 (trastuzumab/cetuximab bispecific system), Q38R_Q124R_Q160K_T178R; assay: SMCA: H1, H2, L1 and L2 co-expressed in CHO-3E7 cells, protein A purification, deglycosylation, LC-MS; competing light chain is the trastuzumab light chain (L1)
[15] = biological target: cetuximab light chain of SMCA design 9820-9823_1 (trastuzumab/cetuximab bispecific system), Q38R_Q124R_Q160K_T178R; assay: SMCA, LC-MS after co-expression of the four chains; difference from the wild-type trastuzumab/cetuximab construct at the same DNA ratio
[16] = biological target: D3H44 light chain F116A_V133G_L135V_S176R; assay: SMCA co-expression, LC-MS; competing light chain m36
[17] = biological target: D3H44 light chain F116A_V133G_L135V_S176R; assay: SMCA: 2 heavy + 2 light chains co-expressed, protein A, LC-MS; competing light chain m58
[18] = biological target: D3H44 light chain F116A_V133G_L135V_S176R; assay: SMCA co-expression, LC-MS; competing light chain m32
[19] = biological target: D3H44 light chain F116A_V133G_L135V_S176R; assay: SMCA co-expression, LC-MS; competing light chain m32; estimated change (***)
[20] = biological target: D3H44 light chain F116A_V133G_L135V_S176R; assay: SMCA co-expression, LC-MS; competing light chain m36; estimated change (***)
[21] = biological target: trastuzumab light chain of SMCA design 9820-9823_1 (trastuzumab/cetuximab bispecific system), Q38E_Q124E_Q160E_T180E
[22] = biological target: trastuzumab light chain of SMCA design 9820-9823_1 (trastuzumab/cetuximab bispecific system), Q38E_Q124E_Q160E_T180E; assay: SMCA, LC-MS after co-expression of the four chains; difference from the wild-type trastuzumab/cetuximab construct at the same DNA ratio
[23] = biological target: D3H44 light chain Q124E_Q160E_T178E; assay: SMCA, LC-MS; estimated change vs similar wild type (***); competing light chain m26
[24] = biological target: D3H44 light chain Q124E_Q160E_T178E; assay: SMCA: LC-MS of protein A purified product after co-expression of H1, H2, L1, L2 in CHO-3E7; competing light chain m52
[25] = biological target: D3H44 light chain Q124E_S131T_T178Y_T180E; assay: as above
[26] = biological target: D3H44 light chain S131E; assay: SMCA: LC-MS of protein A purified product after co-expression of H1, H2, L1, L2 in CHO-3E7; competing light chain m53
[27] = biological target: D3H44 light chain Q124E_Q160E_T178E; assay: SMCA, LC-MS; change vs wild-type bispecific; competing light chain m42
[28] = biological target: D3H44 light chain Q124E_S176L_T180E; assay: SMCA, LC-MS; change vs wild-type bispecific; competing light chain m26
[29] = biological target: D3H44 light chain Q124E_S176L_T180E; assay: SMCA: 2 heavy + 2 light chains co-expressed, protein A, LC-MS; competing light chain m16
[30] = biological target: D3H44 light chain Q124E_Q160E_T178E; assay: SMCA, LC-MS of 4 co-expressed chains; competing light chain m26
[31] = biological target: D3H44 light chain Q124E_S176L_T180E; assay: as above
[32] = biological target: D3H44 light chain Q124E_Q160E_T178E; assay: SMCA, LC-MS of 4 co-expressed chains; competing light chain m42
[33] = biological target: D3H44 light chain Q38R_Q124R_Q160K_T178R; assay: SMCA: four chains co-expressed in CHO-3E7, protein A, LC-MS; competing light chain m41
[34] = biological target: D3H44 light chain Q124R_T178R; assay: SMCA: LC-MS of protein A purified product after co-expression of H1, H2, L1, L2 in CHO-3E7; competing light chain m51
[35] = biological target: D3H44 light chain Q124R_T178R; assay: SMCA, LC-MS; change vs wild-type bispecific; competing light chain m27
[36] = biological target: D3H44 light chain Q124R_T178R; assay: SMCA, LC-MS of 4 co-expressed chains; competing light chain m27
[37] = biological target: Trastuzumab light chain Q38E_Q124E_Q160E_T180E; assay: SMCA: four chains co-expressed in CHO-3E7, protein A, LC-MS; competing light chain m39
[38] = biological target: D3H44 light chain Q124R_T178R; assay: SMCA, LC-MS of 4 co-expressed chains; competing light chain m30
[39] = biological target: D3H44 light chain Q124R_T178R; assay: SMCA: H1, H2, L1, L2 co-expressed in CHO-3E7, protein A, LC-MS; competitor light chain m34
[40] = biological target: D3H44 light chain Q124R_T178R; assay: SMCA: H1, H2, L1, L2 co-expressed in CHO-3E7, protein A, LC-MS; competitor light chain m24
[41] = biological target: D3H44 light chain Q124R_T178R; assay: SMCA, LC-MS; change vs wild-type bispecific; competing light chain m30
[42] = biological target: D3H44 light chain Q124R_T178R; assay: SMCA, LC-MS; change vs wild-type bispecific; competing light chain m25
[43] = biological target: D3H44 light chain Q124R_T178R; assay: SMCA, LC-MS of 4 co-expressed chains; competing light chain m25
[44] = biological target: D3H44 light chain Q124E_V133E; assay: SMCA: four chains co-expressed in CHO-3E7, protein A, LC-MS; competing light chain m45
[45] = biological target: D3H44 light chain Q124E_V133E; assay: SMCA: four chains co-expressed in CHO-3E7, protein A, LC-MS; competing light chain m35
[46] = biological target: D3H44 light chain Q124R_V133A_S176T_T178R; assay: SMCA co-expression, LC-MS; competing light chain m12
[47] = biological target: D3H44 light chain Q124R_V133A_S176T_T178R; assay: SMCA co-expression, LC-MS; competing light chain m8

Change in % H1L1 Pairing (over all H1 species) with respect to wild type [1]: 41.9%
Change in % H1L1 Pairing (over all H1 species) with respect to wild type [2]: 58.1%
% H1L1 Pairing (over all H1 species) [3]: 100%
% H1L1 Pairing (over all H1 species) [4]: 100%
Substance: D3H44 heavy chain A139W_L143E_K145T_Q179E (from UniProt P0DOX5 2-448)

Kd [5]: 140 pM
change in median KD compared to wild type, -(log(KD design)-log(KD wt)) [6]: 0.05 log
Substance: D3H44 H1L1 Fab heterodimer of LCCA Set # 9645 (H1 L143E_K145T_Q179E, L1 Q124K_T178R)

Change in % H2L2 Pairing (over all H2 species) with respect to wild type [7]: 1.7%
Substance: Cetuximab heavy chain L124A_L143F_Q179K

Change in % H2L2 Pairing (over all H2 species) with respect to wild type [8]: 33%
% H2L2 Pairing (over all H2 species) [9]: 58.1%
Substance: Cetuximab heavy chain L124W_L143E_K145T_Q179E

% H2L2 Pairing (over all H2 species) [10]: 42.1%
Change in % H2L2 Pairing (over all H2 species) with respect to wild type [11]: 17%
Substance: Cetuximab heavy chain L124E_A139W

Change in % H2L2 Pairing (over all H2 species) with respect to wild type [12]: 1.6%
% H2L2 Pairing (over all H2 species) [13]: 44%
Change in % H2L2 Pairing (over all H2 species) with respect to wild type [13]: 14.4%
Substance: Cetuximab heavy chain L124E_H172T

% H2L2 Pairing (over all H2 species) [14]: 52.3%
Change in % H2L2 Pairing (over all H2 species) with respect to wild type [15]: 22.7%
Substance: cetuximab full-length heavy chain of SMCA design 9820-9823_1 (trastuzumab/cetuximab bispecific system), Q39E_L143E_K145T_Q179E

% H1L1 Pairing (over all H1 species) [16]: 46.8%
% H1L1 Pairing (over all H1 species) [17]: 100%
% H1L1 Pairing (over all H1 species) [18]: 100%
Change in % H1L1 Pairing (over all H1 species) with respect to wild type [19]: 43.3%
Change in % H1L1 Pairing (over all H1 species) with respect to wild type [20]: 25.8%
Substance: D3H44 heavy chain L124E_A139W (from UniProt P0DOX5 2-448)

% H1L1 Pairing (over all H1 species) [21]: 100%
Change in % H1L1 Pairing (over all H1 species) with respect to wild type [22]: 6%
Substance: trastuzumab full-length heavy chain of SMCA design 9820-9823_1 (trastuzumab/cetuximab bispecific system), Q39R_H172R_Q179K (from UniProt P0DOX5 2-448)

Change in % H1L1 Pairing (over all H1 species) with respect to wild type [23]: 43.3%
% H1L1 Pairing (over all H1 species) [24]: 100%
% H1L1 Pairing (over all H1 species) [25]: 100%
% H1L1 Pairing (over all H1 species) [26]: 100%
Change in % H1L1 Pairing (over all H1 species) with respect to wild type [27]: 60.9%
Change in % H1L1 Pairing (over all H1 species) with respect to wild type [28]: 52.5%
% H1L1 Pairing (over all H1 species) [29]: 100%
% H1L1 Pairing (over all H1 species) [30]: 100%
% H1L1 Pairing (over all H1 species) [31]: 100%
% H1L1 Pairing (over all H1 species) [32]: 98.2%
Substance: D3H44 heavy chain S186K (from UniProt P0DOX5 2-448)

% H1L1 Pairing (over all H1 species) [33]: 86.6%
Substance: D3H44 full-length heavy chain Q39E_L143E_K145T_Q179E (from UniProt P0DOX5 2-448)

% H1L1 Pairing (over all H1 species) [34]: 94.3%
Change in % H1L1 Pairing (over all H1 species) with respect to wild type [35]: 32.4%
% H1L1 Pairing (over all H1 species) [36]: 94.3%
Substance: D3H44 heavy chain L143E_K145T_Q179E_S188L (from UniProt P0DOX5 2-448)

% H2L2 Pairing (over all H2 species) [37]: 100%
Substance: Trastuzumab full-length heavy chain Q39R_H172R_Q179K (from UniProt P0DOX5 2-448)

% H1L1 Pairing (over all H1 species) [38]: 100%
% H1L1 Pairing (over all H1 species) [39]: 100%
% H1L1 Pairing (over all H1 species) [40]: 100%
Change in % H1L1 Pairing (over all H1 species) with respect to wild type [41]: 38.1%
Change in % H1L1 Pairing (over all H1 species) with respect to wild type [42]: 38.1%
% H1L1 Pairing (over all H1 species) [43]: 100%
Substance: D3H44 heavy chain L143E_K145T_Q179E (from UniProt P0DOX5 2-448)

% H1L1 Pairing (over all H1 species) [44]: 89.2%
% H1L1 Pairing (over all H1 species) [45]: 97.1%
Substance: D3H44 full-length heavy chain L143R (from UniProt P0DOX5 2-448)

% H1L1 Pairing (over all H1 species) [46]: 47.7%
Change in % H1L1 Pairing (over all H1 species) with respect to wild type [46]: 7.1%
Change in % H1L1 Pairing (over all H1 species) with respect to wild type [47]: 40.4%
Substance: D3H44 heavy chain L124W_L143E_K145T_Q179E (from UniProt P0DOX5 2-448)

— patent publication US11306156
